Measurements as given in paper PMC6980381 (Science (New York, N.Y.), 2019).

Target: T1, Npl4 (untagged, of the Ufd1/Npl4 cofactor complex) (S. cerevisiae, UniProt P33755 1-580)
T1 sequence: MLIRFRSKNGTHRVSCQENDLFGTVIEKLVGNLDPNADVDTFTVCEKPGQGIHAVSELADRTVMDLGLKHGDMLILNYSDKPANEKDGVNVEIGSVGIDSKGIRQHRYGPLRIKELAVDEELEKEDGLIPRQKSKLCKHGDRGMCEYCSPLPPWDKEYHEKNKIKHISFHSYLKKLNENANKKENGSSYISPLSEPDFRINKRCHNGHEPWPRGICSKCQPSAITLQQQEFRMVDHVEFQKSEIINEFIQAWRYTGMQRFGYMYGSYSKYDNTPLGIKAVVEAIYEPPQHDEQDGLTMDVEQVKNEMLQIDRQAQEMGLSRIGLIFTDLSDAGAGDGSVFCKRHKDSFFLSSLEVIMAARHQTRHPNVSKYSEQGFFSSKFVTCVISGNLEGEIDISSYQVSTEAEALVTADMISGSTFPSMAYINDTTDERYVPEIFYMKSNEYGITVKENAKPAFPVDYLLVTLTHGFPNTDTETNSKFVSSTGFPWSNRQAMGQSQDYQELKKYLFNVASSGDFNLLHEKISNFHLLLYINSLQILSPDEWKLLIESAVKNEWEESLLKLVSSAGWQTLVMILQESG
Assay: cryo-EM structure

B1: Ufd1 (untagged, of the Ufd1/Npl4 cofactor complex) (natural protein, S. cerevisiae, UniProt P53044 1-361, looked up)
chain: MFSGFSSFGGGNGFVNMPQTFEEFFRCYPIAMMNDRIRKDDANFGGKIFLPPSALSKLSMLNIRYPMLFKLTANETGRVTHGGVLEFIAEEGRVYLPQWMMETLGIQPGSLLQISSTDVPLGQFVKLEPQSVDFLDISDPKAVLENVLRNFSTLTVDDVIEISYNGKTFKIKILEVKPESSSKSICVIETDLVTDFAPPVGYVEPDYKALKAQQDKEKKNSFGKGQVLDPSVLGQGSMSTRIDYAGIANSSRNKLSKFVGQGQNISGKAPKAEPKQDIKDMKITFDGEPAKLDLPEGQLFFGFPMVLPKEDEESAAGSKSSEQNFQGQGISLRKSNKRKTKSDHDSSKSKAPKSPEVIEID
B1: binds.
